Experimental data published in the supplement of paper PMC9170038.

System: MS2 coat protein
Assay: apparent KD of MS2 coat protein; designed switch direction (-1 OFF switch, 1 ON switch): 1; higher = weaker reporter binding
Method in brief: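 SNAP-549-labelled MS2 coat protein was titrated, doubling from 0.7 or 1.5 nM to 3 µM, over designed RNA switches transcribed on Illumina chips by stalled E. coli RNA polymerase. Runs were done without input, with 200 uM small-molecule ligand, or with an oligonucleotide input. Apparent KD is the per-design median over clusters of curve-fitted normalised fluorescence.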

[1] = Eterna round: R95, input ligand: microRNA oligo, concentration not stated
[2] = input ligand: microRNA oligo, concentration not stated
[3] = Eterna round: R95, input ligand: FMN 200 uM
[4] = Eterna round: R95, input ligand: none

Sequence	apparent KD of MS2 coat protein [1]	apparent KD of MS2 coat protein (input ligand: FMN 200 uM)	apparent KD of MS2 coat protein [2]	apparent KD of MS2 coat protein (input ligand: none)	apparent KD of MS2 coat protein [3]	apparent KD of MS2 coat protein [4]
GAUUCACAUGAGGAUCACCCAUGUCGUAAUAUGGGAGGAUAUACGUGGACCGUAGUCCGCGUAGAAGGCCUAAUUG [Mat - Same State 1 - Mod of JL - D25] (puzzle: Same State 1)	148 nM	–	–	–	–	–
GCACAUGAGGAUCACCCAUGUGCGAGAAAGACGGACCGGAUACAGGAUAUGCGCGAACGGAAGACGCAGAAGGGUGACCAAAAC [Anmaed] (Eterna round: R96, puzzle: Same State NG 3)	–	64.1 nM	38.2 nM	40.6 nM	–	–
GCACUGGCGGUAGGAUAUCUAGGAUAUGGGAAAGACUAAGUCUGUAGGUCACCUAACCCAGAAGGAGAGAAGGACACCGAAAGG [pwkr ssNG2 2FMN + F9.20] (Eterna round: R96, puzzle: Same State NG 2)	–	115 nM	16.5 nM	12.9 nM	–	–
GCACUGGCGGUAGGAUAUCUAGGAUAUGGGAAAGACUAAGUCUGUAGGUCACCUAACCCAGAAGGAGAGAAGGACCCUGUAAGG [pwkr ssNG2 2FMN + F9.22] (Eterna round: R96, puzzle: Same State NG 2)	–	6.55 nM	1.33 nM	18.1 nM	–	–
GCAGAACAUGAGGAUCACCCAUGUCUCUAAUAUCGAGGAUAUGGGCACGGUAUAUCCGAACCAGAAGGCGAACUGC [SS1 Teenbexe 15] (puzzle: Same State 1)	244 nM	–	–	–	–	–
GCAGUACACGCAGAGGAUAUGUCGGUAACGACAUGAGGAUCACCCAUGUGUACGGAAGUACUCAGACAGAAGGCUGUGUACUGCU [Same State 2 - Hyphema v.3] (puzzle: Same State 2)	79.1 nM	–	–	–	19.4 nM	96.2 nM
GCAUUAGGCAUAGGAUAUCCAACAUGAGGAUCACCCAUGUCGCAGCGUGAAAAGAACGCUGCAAAGGAGAAGGAUGCGGUUUAC [Onususa] (Eterna round: R96, puzzle: Same State NG 2)	–	11.8 nM	18.8 nM	29.9 nM	–	–
GCCAACACAUGAGGAUAUGGCACCUUAUUGGUGCCAGAAGGCAUGUGAAUUCACAUGAGGAUCACCCAUGUAUUAUAGUUGGCA [Fiskers NG1ss - 19] (Eterna round: R96, puzzle: Same State NG 1)	–	18.8 nM	75.1 nM	121 nM	–	–
GCCAACGCAUGAGGAUAUGGCACCUUAUUGGUGCCAGAAGGCAUGUGUAUUCACAUGAGGAUCACCCAUGUAUUAUAGUUGGCA [Fiskers NG1ss - 16] (Eterna round: R96, puzzle: Same State NG 1)	–	18.2 nM	132 nM	176 nM	–	–
GCCAUCGUAUGAGGAUAUGGCACCGUUUCGGUGCCAGAAGGCAUGUCAAUUGACAUGAGGAUCACCCAUGUAUUAUCGAUGGCA [JL Fiskers NG1ss - 33 mod 6] (Eterna round: R96, puzzle: Same State NG 1)	–	99.8 nM	485 nM	925 nM	–	–
GCCGGCUGGUGAGGAUAUGGCACCUUAUUGGUGCCAGAAGGCAUGUCAAUUGACAUGAGGAUCACCCAUGUAUUAUGGUUGGCG [salish99_SSNG1_r04_606] (Eterna round: R96, puzzle: Same State NG 1)	–	567 nM	63.2 nM	85.4 nM	–	–
GCCGGCUGGUGAGGAUAUGGCACCUUAUUGGUGCCAGAAGGCAUGUCAAUUGACAUGAGGAUCACCCAUGUAUUGUCGUUGGCG [salish99_SSNG1_r04_608] (Eterna round: R96, puzzle: Same State NG 1)	–	819 nM	194 nM	399 nM	–	–
GCCGUAUAAACAUGAGGAUCACCCAUGUGCGCGAGAGCGGAUGAGGAUAUCGAUGGGUUUCCCGUCGAGAAGGCGUGGGUCGGC [JL SSNG3 3.97] (Eterna round: R96, puzzle: Same State NG 3)	–	31 nM	41.1 nM	55.2 nM	–	–
GCGAAAGCGGUAGGAUAUCUAGGAUAUGGGAAGAGCUAAGCUUGGAAGUCACUUCACCCAGAAGGAGAGAAGGACACCGAAAGG [pwkr ssNG2 2FMN + F9.3] (Eterna round: R96, puzzle: Same State NG 2)	–	2990 nM	302 nM	390 nM	–	–
GCGAAGAGGUAAGGAUAUUCAUGGCGUAGACAUGAGGAUCACCCAUGUAGGAGACGAAUUAAAAGGGAGAAGGUACCAGGACGC [AK SSNG2-V2-16] (Eterna round: R96, puzzle: Same State NG 2)	–	50.1 nM	298 nM	286 nM	–	–
GCGAGCGUACUUGCAGACAUGAGGAUCACCCAUGUAACUGGACAGGAUAUGGUACCGUUUCGGUACCAGAAGGGUUUAUAUGUC [JL SSNG3 3.52] (Eterna round: R96, puzzle: Same State NG 3)	–	40.4 nM	25.7 nM	57.4 nM	–	–
GCGAGCGUACUUGCAGACAUGAGGAUCACCCAUGUAACUGGACAGGAUAUGGUACCGUUUCGGUACCAGAAGGGUUUAUUCAUG [JL SSNG3 3.56] (Eterna round: R96, puzzle: Same State NG 3)	–	83.4 nM	63.5 nM	56.2 nM	–	–
GCGCAGCUGAGUGAGGAUAUCGGUGGUAAAACAUGAGGAUCACCCAUGUCCGAAGCUCGGACUUCCGAGAAGGCACCCGGCUGCA [Inisusbeor] (puzzle: Same State 2)	47.4 nM	–	–	–	11.9 nM	73.5 nM
GCGCGAAAGAGCGAGGAUAUGCGGCGUAUAACAUGAGGAUCACCCAUGUCCUUCGAAUCUUGUACGCAGAAGGCGCUACAGGCGC [Robot Leg] (puzzle: Same State 2)	61 nM	–	–	–	154 nM	62.2 nM
GCGGAAACUCACAUGAGGAUCACCCAUGUUCCGGAAACGGCACAGGAUAUCUGUCCGAAAAGGUCAGAGAAGGGUGAAAUCCGC [Fiskers NG3ss - 92] (Eterna round: R96, puzzle: Same State NG 3)	–	282 nM	9.95 nM	54.8 nM	–	–
GCUACCAAUGAAGCCAACAUGAGGAUCACCCAUGUAUGUUGGUAGGAUAUCGUUUGCAAAGCAAACGAGAAGGGCUAAGGUAGC [Mat - Same State NG 3 - JL Mod - D75] (Eterna round: R96, puzzle: Same State NG 3)	–	62.8 nM	36.8 nM	51 nM	–	–
GCUACCAAUGAAGCCUACAUGAGGAUCACCCAUGUAUGUAGGCAGGAUAUCGAUUGCAAAGCGAUCGAGAAGGGCUUAGGUAGC [Mat - Same State NG 3 - JL Mod - D91] (Eterna round: R96, puzzle: Same State NG 3)	–	35.9 nM	79.6 nM	95.8 nM	–	–
GCUAGAAAUAAAGCCAACAUGAGGAUCACCCAUGUAUGUUGGCAGGAUAUCGUUUGCUUUGCAAACGAGAAGGGCCAAACUAGC [Mat - Same State NG 3 - JL Mod - D1] (Eterna round: R96, puzzle: Same State NG 3)	–	57 nM	127 nM	129 nM	–	–
GCUAGGAUAUGACCAGGAUCACCGGUUAGAAGGAGCGAAAGCUAGGAUAUGACCAGGAUCACCGGUUAGAAGGAGCUGUCCUCC [pwkr ssNG3 DX 2xF5 +2xFMN.12] (Eterna round: R96, puzzle: Same State NG 3)	–	69.1 nM	101 nM	117 nM	–	–
GCUAGUAUUAUUGUCAACAUGAGGAUCACCCAUGUAUGUUGGCAGGAUAUCGUUUGCAAAGCAAACGAGAAGGGCUAAACUAGC [Mat - Same State NG 3 - JL Mod - D10] (Eterna round: R96, puzzle: Same State NG 3)	–	71.9 nM	105 nM	185 nM	–	–
GCUCGACUGAUGGCCUACAUGAGGAUCACCCAUGUGAUUGGGCAGGAUAUCUAGAUGCAGGAUGUAGAGAAGGGCCAGUCGAGC [SameState NG3 #45] (Eterna round: R96, puzzle: Same State NG 3)	–	1130 nM	477 nM	503 nM	–	–
GCUCGGCUGAUGGCCUACAUGAGGAUCACCCAUGUGACUGGGCAGGAUAUCUAGAUGCAGGAUGUAGAGAAGGGCCUGCCGAGC [SameState NG3 #42] (Eterna round: R96, puzzle: Same State NG 3)	–	704 nM	224 nM	458 nM	–	–
GCUCGGCUGAUGGCCUACAUGAGGAUCACCCAUGUGUGUGGGCAGGAUAUCUAGAUUAAGGAUGUAGAGAAGGGCCUGCCGAGC [SameState NG3 #38] (Eterna round: R96, puzzle: Same State NG 3)	–	2620 nM	340 nM	972 nM	–	–
GCUGCAAUAAACGCCUACAUGAGGAUCACCCAUGUAUGUAGGCAGGAUAUCGUUUGCAAAGCAAACGAGAAGGGCUGUAGUAGC [Mat - Same State NG 3 - JL Mod - D38] (Eterna round: R96, puzzle: Same State NG 3)	–	52.6 nM	59.8 nM	101 nM	–	–
GCUGCAAUUAACGCCUACAUGAGGAUCACCCAUGUAUGUAGGCAGGAUAUCGUUUGCAAAGCAAACGAGAAGGGCUGUAGUAGC [Mat - Same State NG 3 - JL Mod - D37] (Eterna round: R96, puzzle: Same State NG 3)	–	65.4 nM	83.4 nM	113 nM	–	–
